In patent US8741844B2, “Use of mutated antithrombins for treating or preventing coagulation disorders” (Universite Paris-Sud XI, priority 2007, dated 2014):

Columns and labels:
[1] = tested on: pentasaccharide bound plasma antithrombin (plasma anti-factor Xa activity); test: Rotachrom heparin anti factor Xa assay in pentasaccharide containing human plasma (competition with plasma antithrombin for pentasaccharide binding); format: biochemical; conditions: for effect on anti-Xa activity of pentasaccharide containing plasma sample: human plasma, pre-incubation 30 min at 37° C.
Procedure: Anti factor Xa inhibitory activity of mutated antithrombins AT-R393H(SEQ ID NO: 4), AT-Pro394 (SEQ ID NO: 6), AT-ΔR393-5394 (SEQ ID NO: 18), AT-ΔR393 (SEQ ID NO: 8), AT-ΔS394 (SEQ ID NO: 10), AT-N135Q-R393H(SEQ ID NO: 14), AT-N135Q-Pro394 (SEQ ID NO: 16), AT-N135Q-ΔR393-S394 (SEQ ID NO: 24), AT-N135Q-ΔR393 (SEQ ID NO: 20), AT-N135Q-ΔS394 (SEQ ID NO: 22) is measured in pentasaccharide containing plasma. The plasma concentrations of pentasaccharides are defined on the basis on those measured in patients treated by the pentasaccharide under the conditions of a regular (curative) use of this molecule or in patients presenting an overdose of this drug, knowing that the optimal equilibrium concentration is 1.20-1.26 mg/L and the minimal equilibrium concentration is 0.46-0.62 mg/L during a curative pentasaccharide treatment (monograph, Arixtra®).
The anti factor Xa assay is performed using the Rotachrom® heparin method (Stago) adaptated for absorbance reading on a microplate reader (Dynatech MR 5000), or a STA analyser (Stago).
The procedure consists in mixing 30 μl of pentasaccharide containing plasma sample diluted four times in kinetic buffer, with 75 μl of chromogenic substrate (1 mM, provided in Rotachrom® heparin kit). After 4 min incubation, 75 μl of bovine factor Xa (24 nM, Rotachrom® heparin kit) is added to the plasma-substrate mixture. The factor Xa activity is measured a 405 nm absorbance increase, resulting from cleavage of the chromogenic substrate, using a microplate reader (Dynatech MR 5000). The rate constant (k), proportional to anti-factor Xa activity, is obtained by fitting the substrate hydrolysis curve to equation (3) or (3′).
Firstly, the assay is calibrated in citrated (0.105 M) normal human plasma containing pentasaccharide concentrations ranging from 0 to 3 mg/L. A standard curve is generated and anti-factor Xa activity is expressed as mg of pentasaccharide per liter of plasma.
Secondly, to evaluate the anti factor Xa inhibitory activity of mutated antithrombins, the mutated antithrombin (0-0.6 g/L, preferably 0.15-0.6 g/L, final concentration, in kinetic buffer) is pre-incubated with an equal volume of pentasaccharide (0-3 mg/L, preferably 1-3 mg/L) containing plasma samples, during 30 min at 37° C.
Under these conditions, the mutated antithrombin concentration range from one to four times that of the plasma antithrombin level, which is compatible with a therapeutic use of antithrombin. Indeed, very high doses of mutated antithrombin, with a 5 fold increase in plasma antithrombin level, have already been used during clinical trials without side effects (Leitner J M, Firbas C, Mayr F B, Reiter R A, Steinlechner B, Jilma B., Recombinant human antithrombin inhibits thrombin formation and interleukin 6 release in human endotoxemia. Clin Pharmacol Ther. 2006 January; 79(1):23-34). Anti factor Xa inhibitory activity is then evaluated as previously described.
To estimate whether mutated antithrombin can be used as reversal of pentasaccharide in case of over-dosing, AT-N135Q-R393H(SEQ ID NO: 14) and AT-N135Q-Pro394 (SEQ ID NO: 16) are tested in Rotachrom® heparin assay for their ability to restore factor Xa activity. Under conditions of treatment for prevention of venous thromboembolic events, optimal pentasaccharide concentration ranges between 1.2 and 1.26 μg/mL in plasma. To mimic an over-dosing, pentasaccharide is added to human plasma pool at concentration of 3 μg/ml. Rotachrom® heparin assay is then performed by incubation of plasma over-dosed with pentasaccharide in the presence of mutated antithrombin in a ratio 1/1, 2/1, and 4/1 compared to plasma antithrombin concentration (i.e. 0.15, 0.3, 0.6 g/l). In this ex vivo assay, anti-factor Xa activity is proportional to the amount of pentasaccharide bound natural antithrombin present in tested plasma, which amount is directly proportional to pentasaccharide concentration in plasma. […]

[2] = tested on: pentasaccharide bound murine antithrombin (plasma anti-Xa activity); test: Anti factor Xa assay in mouse plasma supplemented with Fondaparinux; format: biochemical
Procedure: During the animal experimentation (see detailed protocol below), human mutated antithrombins compete with murine antithrombin for their binding to the pentasaccharide. Thus, preliminary in vitro assays are performed to determine the human mutated antithrombin concentration necessary to compete with the murine antithrombin present in mouse plasma supplemented with Fondaparinux.
These experiments are performed as described in section II-b, using mouse plasma instead of human plasma.

Molecule	effect on anti-Xa activity of pentasaccharide containing plasma sample [1]	effect on anti-Xa activity of pentasaccharide contained in mouse plasma [2]	virtual pentasaccharide concentration at 2 or 4 fold molar excess compared to natural antithrombin ([1]; human plasma with 3 μg/ml pentasaccharide)	effect on anti-factor Xa activity at concentration equal to plasmatic antithrombin concentration ([1]; human plasma with 3 μg/ml pentasaccharide, ratio 1/1)
AT-ΔR393: human antithrombin with deletion of the amino acid at position 393 (protein, listed as Homo sapiens) HGSPVDICTAKPRDIPMNPMCIYRSPEKKATEDEGSEQKIPEATNRRVWELSKANSRFATTFYQHLADSKNDNDNIFLSPLSISTAFAMTKLGACNDTLQQLMEVFKFDTISEKTSDQIHFFFAKLNCRLYRKANKSSKLVSANRLFGDKSLTFNETYQDISELVYGAKLQPLDFKENAEQSRAAINKWVSNKTEGRITDVIPSEAINELTVLVLVNTIYFKGLWKSKFSPENTRKELFYKADGESCSASMMYQEGKFRYRRVAEGTQVLELPFKGDDITMVLILPKPEKSLAKVEKELTPEVLQEWLDELEEMMLVVHMPRFRIEDGFSLKEQLQDMGLVDLFSPEKSKLPGIVAEGRDDLYVSDAFHKAFLEVNEEGSEAAASTAVVIAGSLNPNRVTFKANRPFLVFIREVPLNTIIFMGRVANPCVK	significant decrease	significant decrease	–	–
AT-ΔS394: human antithrombin with deletion of the amino acid at position 394 (protein, listed as Homo sapiens) HGSPVDICTAKPRDIPMNPMCIYRSPEKKATEDEGSEQKIPEATNRRVWELSKANSRFATTFYQHLADSKNDNDNIFLSPLSISTAFAMTKLGACNDTLQQLMEVFKFDTISEKTSDQIHFFFAKLNCRLYRKANKSSKLVSANRLFGDKSLTFNETYQDISELVYGAKLQPLDFKENAEQSRAAINKWVSNKTEGRITDVIPSEAINELTVLVLVNTIYFKGLWKSKFSPENTRKELFYKADGESCSASMMYQEGKFRYRRVAEGTQVLELPFKGDDITMVLILPKPEKSLAKVEKELTPEVLQEWLDELEEMMLVVHMPRFRIEDGFSLKEQLQDMGLVDLFSPEKSKLPGIVAEGRDDLYVSDAFHKAFLEVNEEGSEAAASTAVVIAGRLNPNRVTFKANRPFLVFIREVPLNTIIFMGRVANPCVK	significant decrease	significant decrease	–	–
AT-Pro394: human antithrombin with insertion of a Proline between positions 393 and 394 (protein, listed as Homo sapiens) HGSPVDICTAKPRDIPMNPMCIYRSPEKKATEDEGSEQKIPEATNRRVWELSKANSRFATTFYQHLADSKNDNDNIFLSPLSISTAFAMTKLGACNDTLQQLMEVFKFDTISEKTSDQIHFFFAKLNCRLYRKANKSSKLVSANRLFGDKSLTFNETYQDISELVYGAKLQPLDFKENAEQSRAAINKWVSNKTEGRITDVIPSEAINELTVLVLVNTIYFKGLWKSKFSPENTRKELFYKADGESCSASMMYQEGKFRYRRVAEGTQVLELPFKGDDITMVLILPKPEKSLAKVEKELTPEVLQEWLDELEEMMLVVHMPRFRIEDGFSLKEQLQDMGLVDLFSPEKSKLPGIVAEGRDDLYVSDAFHKAFLEVNEEGSEAAASTAVVIAGRPSLNPNRVTFKANRPFLVFIREVPLNTIIFMGRVANPCVK	significant decrease	significant decrease	decreases to a level comparable to curative pentasaccharide treatment	significantly decrease
AT-N135Q-ΔR393-S394: human antithrombin with deletion of positions 393 and 394 and substitution at 135 by Glutamine (protein, listed as Homo sapiens) HGSPVDICTAKPRDIPMNPMCIYRSPEKKATEDEGSEQKIPEATNRRVWELSKANSRFATTFYQHLADSKNDNDNIFLSPLSISTAFAMTKLGACNDTLQQLMEVFKFDTISEKTSDQIHFFFAKLNCRLYRKAQKSSKLVSANRLFGDKSLTFNETYQDISELVYGAKLQPLDFKENAEQSRAAINKWVSNKTEGRITDVIPSEAINELTVLVLVNTIYFKGLWKSKFSPENTRKELFYKADGESCSASMMYQEGKFRYRRVAEGTQVLELPFKGDDITMVLILPKPEKSLAKVEKELTPEVLQEWLDELEEMMLVVHMPRFRIEDGFSLKEQLQDMGLVDLFSPEKSKLPGIVAEGRDDLYVSDAFHKAFLEVNEEGSEAAASTAVVIAGLNPNRVTFKANRPFLVFIREVPLNTIIFMGRVANPCVK	significant decrease	significant decrease	–	–
AT-ΔR393-S394: human antithrombin with deletion of the amino acids at positions 393 and 394 (protein, listed as Homo sapiens) HGSPVDICTAKPRDIPMNPMCIYRSPEKKATEDEGSEQKIPEATNRRVWELSKANSRFATTFYQHLADSKNDNDNIFLSPLSISTAFAMTKLGACNDTLQQLMEVFKFDTISEKTSDQIHFFFAKLNCRLYRKANKSSKLVSANRLFGDKSLTFNETYQDISELVYGAKLQPLDFKENAEQSRAAINKWVSNKTEGRITDVIPSEAINELTVLVLVNTIYFKGLWKSKFSPENTRKELFYKADGESCSASMMYQEGKFRYRRVAEGTQVLELPFKGDDITMVLILPKPEKSLAKVEKELTPEVLQEWLDELEEMMLVVHMPRFRIEDGFSLKEQLQDMGLVDLFSPEKSKLPGIVAEGRDDLYVSDAFHKAFLEVNEEGSEAAASTAVVIAGLNPNRVTFKANRPFLVFIREVPLNTIIFMGRVANPCVK	significant decrease	significant decrease	–	–
